Consider three molecules from US20140170142A1 (AstraZeneca / MedImmune, published 2014).

Residue numbers refer to the chain shown, from its start. Names and notes keep the numbering of the source.

Experiment [1] deals with T1, mouse serum albumin (mouse, UniProt P07724 25-608).
T1 construct: also called MSA; mouse albumin
In words: SPR (BIAcore 3000), CM5 chip, PBS pH 7.5. The source says: (§1) The interaction between different ABD-Fc variants and MSA (mouse serum albumin), HSA (human serum albumin) and mFcRn were monitored by surface plasmon resonance detection using BIAcore 3000 instrument. (GE Healthcare). First, ABD-Fc variants were coupled to dextran matrix of CM5 sensor chip using an Amine Coupling Kit at a surface density of 1000-2000 RU according to manufacturer's instructions. Human and mouse albumin as well mouse FcRn were flown over in a test-bind experiments at the concentrations ranging from 0.1-10 μM at a flow rate of 5 μl/min. Dilution and binding experiments were carried out in PBS pH7.5; 150 mM NaCl; 0.005% Tween for albumin binding and 50 mM NaPhosphate pH6.0; 150 mM NaCl; 0.005% Tween for mouse FcRn. Subsequently, the format of the Biacore experiments were flipped where mouse and human albumin as well as mouse FcRn were coupled to a CM5 chip using Amine Coupling Kit at surface densities ranging from 500-1500 RU. The ABD-Fc variants were flown over at three different concentrations 0.5; 1 and 10 μM. The latter format was more successful due to higher signal and self-consistency.
A general note: In SPR one partner is held on a chip, and binding of the other changes the refractive index at the surface.

The target in the next experiment is T2, mouse FcRn (mouse, UniProt Q61559 22-297; P01887 21-119, limits assumed).
T2 construct: also called mFcRn
T2 sequence (looked up): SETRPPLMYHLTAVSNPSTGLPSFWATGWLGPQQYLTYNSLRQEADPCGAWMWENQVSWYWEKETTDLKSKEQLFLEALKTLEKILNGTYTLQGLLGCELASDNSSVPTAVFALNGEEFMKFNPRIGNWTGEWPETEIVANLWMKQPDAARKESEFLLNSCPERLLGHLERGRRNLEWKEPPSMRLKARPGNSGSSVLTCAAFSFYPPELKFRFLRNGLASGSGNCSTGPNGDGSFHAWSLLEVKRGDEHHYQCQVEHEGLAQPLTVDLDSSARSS
T2 sequence (b2m, looked up): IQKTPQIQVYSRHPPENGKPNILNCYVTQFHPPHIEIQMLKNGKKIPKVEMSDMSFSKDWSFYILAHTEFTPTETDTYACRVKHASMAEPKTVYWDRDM
The experiment in a line: SPR (BIAcore 3000), CM5 chip, pH 6.0, three concentrations of injectant.
Excerpt: as §1

Experiment [2] has as its target T3, human serum albumin (human, UniProt P02768 25-609).
T3 construct: also called HSA; human albumin
In words: SPR (BIAcore 3000), CM5 chip, PBS pH 7.5.
Excerpt: as §1

For experiment [3], the target named is T1, mouse serum albumin. In words: SPR (BIAcore 3000), CM5 chip, three concentrations of injectant.
Excerpt: as §1

Experiment [4] has as its target T3, human serum albumin. The experiment is described as above.
Excerpt: as §1

T3 sequence (P02768 25-609 limits assumed): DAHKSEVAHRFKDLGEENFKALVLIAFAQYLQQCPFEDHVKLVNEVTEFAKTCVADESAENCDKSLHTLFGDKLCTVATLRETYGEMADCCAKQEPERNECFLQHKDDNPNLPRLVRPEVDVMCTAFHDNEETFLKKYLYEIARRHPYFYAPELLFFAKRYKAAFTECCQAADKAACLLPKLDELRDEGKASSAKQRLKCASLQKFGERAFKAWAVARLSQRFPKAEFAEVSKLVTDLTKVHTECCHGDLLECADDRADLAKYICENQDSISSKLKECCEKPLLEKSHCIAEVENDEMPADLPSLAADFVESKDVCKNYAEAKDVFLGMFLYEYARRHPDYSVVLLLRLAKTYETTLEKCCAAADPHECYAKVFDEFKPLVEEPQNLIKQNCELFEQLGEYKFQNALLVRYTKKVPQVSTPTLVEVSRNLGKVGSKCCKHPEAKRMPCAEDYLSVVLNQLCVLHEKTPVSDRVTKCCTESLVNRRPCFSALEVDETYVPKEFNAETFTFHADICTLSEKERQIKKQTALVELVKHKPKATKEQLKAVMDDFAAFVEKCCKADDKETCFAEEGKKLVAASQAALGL

B1: ABD-Fc: fusion of unmodified ABD and unmodified Fc (Fc fusion)
chain: LAEAKVLANRELDKYGVSDYYKNLINNAKTVEGVKALIDEILAALPGAEPRGPTIKPCPPCKCPAPNLLGGPSVFIFPPKIKDVLMISLSPIVTCVVVDVSEDDPDVQISWFVNNVEVHTAQTQTHREDYNSTLRVVSALPIQHQDWMSGKEFKCKVNNKDLPAPIERTISKPKGSVRAPQVYVLPPPEEEMTKKQVTLTCMVTDFMPEDIYVEWTNNGKTELNYKNTEPVLDSDGSYFMYSKLRVEKKNWVERNSYSCSVVHEGLHNHHTTKSFSRTPGKGGGGSEQKLISEEDLGGGGSHHHHHH
notes: also called wild type ABD-Fc; ABD-Fc parental construct
With B1, the binding result with mouse serum albumin [1] is listed as “binds”.

B2: ABD-Fc (His 310): knockout substitution in Fc region of Igg2A H310A (Fc fusion)
chain: B1 chain with H144A
notes: also called ABD-(His310TM)-Fc
On to B2, for which the binding result with mouse FcRn is given as “no binding (tested: 10 µM)”; with mouse serum albumin [1] it was “binds”; with human serum albumin [2] it was “binds”.

B3: ABD-TM-Fc: triple knockout mutations of ABD residues S18A; T20A and Y21A (Fc fusion)
chain: B1 chain with S18A, Y20A, K22A
notes: T20A/Y20A; Y21A)
Take B3: the binding result with mouse serum albumin [3] and in the experiment with human serum albumin [4] was “no binding (tested: 10 µM)” each time.
